According to the nanobody polyreactivity screen of Harvey et al. (2022):

Assay: yeast display, Sf9 membrane polyspecificity reagent, FACS + sequencing; frameworks hold sequencing errors
Summary of the method: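 A synthetic nanobody library was expressed on Saccharomyces cerevisiae BJ5465 by galactose induction for 36–48 hours. The library was stained for 1 hour at 4 °C with 10% biotinylated, detergent-solubilized Sf9 membrane reagent and enriched with streptavidin microbeads before FACS. Low and high (top ~1%) gates were set on anti-HA fluorescence for expression and streptavidin fluorescence for reagent binding, and each polyreactivity label reflects the gate of origin.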

Sequence | polyreactivity (PSR sort gate)
QVQLVESGGGLVQAGGSLRLSCAASGRTFWFYGMGWYREAAGKEREFVARISGSGGSTYYADSVKGRFTISRDNAKNTVYLQMNSLKPEDTAVYYCAKDNRYPYPSGLDYWGQGTQVTVSS | high polyreactivity
QVQLVESGGGLVQAGGSLRLSCAASGRTFWGYAMGWYRQAPGKERELVATISSTGSTNYAESVKGRFTISRDNAKNTVYFQMNSLKPEATAVYYCNAKRHVYRGWYQRYDYWGQGTQVTVSS | high polyreactivity
QVQLVESGGGLVQAGGSLRLSCAASGRTFWINAMGWYRQAPGKERELVAAITRGGRTYADSVKGRFTISRDNAKYTVYLQMNSLKPEDTAVYYCAAESYRLSGHHGYDYWGQCTQVTVSS | high polyreactivity
QVQLVESGGGLVQAGGSLRLSCAASGRTFWIYAMGWYRQAPGKEREFVAAISSSGGGTYYADSVKGRFTISRDNAKNTVYLQMNSLKPEDTAVYYCAADDGYSSNEFDYWGQGTQVTVSS | low polyreactivity
QVQLVESGGGLVQAGGSLRLSCAASGRTFWIYAMGWYRQAPGKEREFVAAISSSGGGTYYADSVKGRFTISRDNAKNTVYLQMNSLKPEDTAVYYCAKDLYFSKGYYWGQGTQVTVSS | low polyreactivity
QVQLVESGGGLVQAGGSLRLSCAASGRTFWIYGMGWYRQAPGKERELVAAITRSGGSTNYADSVKGRFTISRDNAKNTVYLQMKSLKPEDTAVYYCAADTWYPGYYAYDYWGQGTQVTVSS | high polyreactivity
QVQLVESGGGLVQAGGSLRLSCAASGRTFWNYAMGWYRQAPGKERELVAVIRFSDGSTYYSDSVKGRFTISRDKAKNTVYLQMNSLKPEDTAVYYCGAKGPRRWGSGFDYWGQGTQVNVSS | low polyreactivity
QVQLVESGGGLVQAGGSLRLSCAASGRTFWPNVMGWYRQAPGKERELVAAITWGDASTYYADSVKGRFTISRDNAKNTVYLQMNSLKPEDTAGYSCAASDYRSTYDYWGQGTQVTVSS | low polyreactivity
QVQLVESGGGLVQAGGSLRLSCAASGRTFWRYAMGWYRQAPGKERELVAAITSGGGSTYYADSVKGRFTISRDNAKNTVYLQMNSLKPEDTAVYYCNRAGRGRSFKGDYWGQGTQVTVSS | high polyreactivity
QVQLVESGGGLVQAGGSLRLSCAASGRTFWRYAMGWYRQAPGKERELVADISNSDTSTYYADSVKGRFTISRDNAKNSVYLQMKSLKPEDTAVYYCAARPFRFRLSDKYNYWGQGTQVTVSS | high polyreactivity
QVQLVESGGGLVQAGGSLRLSCAASGRTFWSNAMGWYRQAPGKERELVADITFSGGRTYYADSVKGRFTISRDNAKNTVYLQMNSLKPEDTAVYYCAASATPSGVGMDYWGQGTQVTVSS | low polyreactivity
QVQLVESGGGLVQAGGSLRLSCAASGRTFWSYAMGWYRPAPGKERELVAAINSSGDSTNYADSVKGRFTISRDNAKNTVYLQMNWLKPEDTAVYYCAADGGLLAGSDATVRMDYWGQGTQVTVSS | low polyreactivity
QVQLVESGGGLVQAGGSLRLSCAASGRTFWSYAMGWYRQAPGKERELVATINDSDGSTYADSVKGRFTISRDNAKNTVYLQMNSLKPEDTAVYYCNAQTRAGYYFGYGYWGQGTQVTVSS | low polyreactivity
QVQLVESGGGLVQAGGSLRLSCAASGRTFWTNAKGWYRQAPGKERDFFAAISWRGASTFYADSVKGRFTISRYNAKNTVYLQMNSLKPEDTAVYYCAAQSRTRSFYGKYDSWGQGTQVTVSS | low polyreactivity
QVQLVESGGGLVQAGGSLRLSCAASGRTFWTNAMGWYRQAPGKERELVAAISWTTGSTNYADSVKGRFTISRDNAKNTVYLQMNSLKPEDTAVYYWAADSQYGWPEYEYDYWGQGTQVTVSS | low polyreactivity
QVQLVESGGGLVQAGGSLRLSCAASGRTFWTYAMGWYRLAPGKERELVASISKSGGSTYADSVKGRFTITRDNAKNTVYLQMNSLKPEDTAVYYCATDLSYDVWFFGPDYDYWGQGTQVTVSS | low polyreactivity
QVQLVESGGGLVQAGGSLRLSCAASGRTFWVYAMGWYRQAPGKERELVAAISRSGVSTYYADSVKGRFTISRDNAKNTVYLQMNSLKPEDTAVYYCAAPLIYTPLKYHYWGQGTQVTVSS | low polyreactivity
QVQLVESGGGLVQAGGSLRLSCAASGRTFWWYAMGWYRQAPGKERALVAGISSGGSTYYADSVKGRCTISRDNAKKTVYLLMNSRKPEETAVYYCAKTYWYPWRASLWHEYDYWGQGTQVTVSS | low polyreactivity
QVQLVESGGGLVQAGGSLRLSCAASGRTFWYNAMGWYRQAPGKEREFVAAIRWTTGSTYYADSVKGRFTISRDNAKNTVYLQMNSLKPEDTAVYYCAASLYPVRRDYWGQGTQVTVSS | high polyreactivity
QVQLVESGGGLVQAGGSLRLSCAASGRTFWYNAMGWYRQAPGKERELVAVISSGAITYYADSVKGRFTISRDNAKNTVYLQMNSLKPEDTAVYYCAARSYLSLIDYWGQGTQVTVSS | high polyreactivity
QVQLVESGGGLVQAGGSLRLSCAASGRTFWYNAMGWYRQAPGKERELVAVISSGAITYYADSVKGRFTISRDNAKNTVYLQMNSLKPEDTAVYYCNAQRRGTYYWGQGTQVTVSS | high polyreactivity
QVQLVESGGGLVQAGGSLRLSCAASGRTFWYYAMGWYRQAPGKERELVAAITYRGGSTYYADSVKGRFTISRDNVKNTVYLQMNSLKPEDTAVYYCARRVDSYYGHTRYYYWGQGTQVTVSS | high polyreactivity

Sequence | polyreactivity (PSR sort gate)
QVQLVESGGGLVQAGGSLRLSCAASGRTFWYYAMGWYRQAPGKERELVADITRRGGGTYYADSVKGRFTISRDNAKNTVYLQMNSLKPEDTAVYYCAVERWPRSYPPSYDYWGQGTQVTVSS | high polyreactivity
QVQLVESGGGLVQAGGSLRLSCAASGRTFWYYAMGWYRQAPGNERELVATISYRGGSTYYADSVKGRFTISRDNAKNTVYLQMNSLKPEDPAVYYSAAKQWWGGRPKVDYWGQGTQVTVSS | high polyreactivity
QVQLVESGGGLVQAGGSLRLSCAASGRTFWYYAMVWSRQAPGKERELVAGITFTGGRTYYADSVKGRFTISRDNSKNTVYLQMNSLKPEDTAVYYCAAAGLDVGRKDRDGYWGQGTQVTVSS | low polyreactivity
QVQLVESGGGLVQAGGSLRLSCAASGRTFWYYPMGGYRQEPGKERELVAAITRGTSTYADSVKGRFTISRDNAKTTVYLQMNSLKPEDTAVDYCAADTWGTRNSRYDYWGQGTQVTVSS | high polyreactivity
QVQLVESGGGLVQAGGSLRLSCAASGRTFYANAMGWYRQAPGKERELVAAISSSGSRTYYADSVKGRFTISRDNAKNTVYLQMNSLKPEDTAVYYCNAAAPYLTRQHWARDYWGQGTQVTVSS | high polyreactivity
QVQLVESGGGLVQAGGSLRLSCAASGRTFYANDMGWYRQAPGKERELVARITSGGSTYYADSVKGRFTISRDNAKNTVYLQMNSLKPEDTAVYYCAAVTRRFSYRYNYWGQGTQVTVSS | high polyreactivity
QVQLVESGGGLVQAGGSLRLSCAASGRTFYAYAMGWSRQAPGKERELVAAISWRGGDTYYADSVKGRFTISRDNAKNTVYLQMNSLKPEDTAVYYCAKYLSRQSGDGEYDYWGQGTQVTVSS | low polyreactivity
QVQLVESGGGLVQAGGSLRLSCAASGRTFYAYAMGWYRQAPGKERELVAAISSGGSTYYADSVKGRFTISRDNAKNTVYLQMNSLKPEDTAVYYCNAGYYQWPFSGYDYWGQGTQVTVSS | low polyreactivity
QVQLVESGGGLVQAGGSLRLSCAASGRTFYAYAMGWYRQAPGKERELVSAISWRGGDTYYADSVKGRFTISRDYAKNTVYLQMHSLIPEDTAFYYCAADFTYTWDAAQGYDYWGQGPQVTVSS | low polyreactivity
QVQLVESGGGLVQAGGSLRLSCAASGRTFYDNAMGWYRQAPGKERELVAVISTSGARTYYADSVKGRFTISRDNAKNTVYLQMNSLKPEDTAVYYCAAGPALWQAYRMYYWGQGTQVTVSS | high polyreactivity
QVQLVESGGGLVQAGGSLRLSCAASGRTFYDYAKGWYRQAPGKERELVASITYYADSVKGRFTISRDNAKNTVYLQMNSLKPEDTSVYYCAKDLYSNDLYRRYDYWGQGTQVTVSS | low polyreactivity
QVQLVESGGGLVQAGGSLRLSCAASGRTFYDYAMGWYRQAPGKERELVAGIRWSGGSTYYADSVKGRFTISRDNAKNTVFLQMNSLKPEDTAVYYCAADWFAGVAADVEYDYWGQGTQVTVSS | low polyreactivity
QVQLVESGGGLVQAGGSLRLSCAASGRTFYEYAMGWYRQAPGKERELVAAITRSGGSTYYADSVKGRFTISRDNAKNTVYLQMNSLKPEDTAVYYCAADGIKGGVEYDYWGQGTQVTVSS | high polyreactivity
QVQLVESGGGLVQAGGSLRLSCAASGRTFYFYTMGWYRQAPGKERELVAAITLSGVSTYYADSVKGRFTISRDNAKITVYLQMNSLKPEDTAVYYCNAVYIRPGYRRYDYWGQGTQVTVSS | high polyreactivity
QVQLVESGGGLVQAGGSLRLSCAASGRTFYGNAMGWYRQAPGKERELVAAINYSGGRTFYADSVKGRFTISRDNAKNTVYLQMNSLKPEDTAVYYCAAQDTYYGLFSYWIPWSGYWGQGTQVTVSS | high polyreactivity
QVQLVESGGGLVQAGGSLRLSCAASGRTFYGNAMGWYRQAPGKERELVAAITTGGGNTYYADSVKGRFTISRDNAKNTVYLQMNSLKPEDTAVYYCAKCYRAYYWGFNYWGQGTQVTVSS | high polyreactivity
QVQLVESGGGLVQAGGSLRLSCAASGRTFYGYAMGWYIQAPGKERELVASISYSGGNTYYADSVKGRFTISRDNAKNTVYLQMNSLKPEDTAVYYCAAKARRPYSYHPYDYWGLGTQVTVSS | high polyreactivity
QVQLVESGGGLVQAGGSLRLSCAASGRTFYGYAMGWYRQAPGKERELVAAISSDTGGTDDTYYADSVKGRFTISRDNAKNTVYLQMNSLKPEDTAVYYCAAETEQGIIVTGLAYDYWGQGTQVTVSS | low polyreactivity
QVQLVESGGGLVQAGGSLRLSCAASGRTFYGYAMGWYRQAPGKERELVAAISSNNGRTYYADSVKGRFTISRDNAKNTVYLQMNSLKPEDTAVYYCAAEAVSILWRDYDYWGQGTQVTVSS | low polyreactivity
QVQLVESGGGLVQAGGSLRLSCAASGRTFYGYAMGWYRQAPGKERELVAAISVSGGSTYYADSVKGRFTISRDNAKNTVYLQMNSLKPEDTAVYYCATKGLFTNSPLYVSAYDYWGQGTQVTVSS | low polyreactivity
QVQLVESGGGLVQAGGSLRLSCAASGRTFYGYAMGWYRQAPGKERELVASISRDGSTNYADSVKGRFTISRDNAKNTVYLQMNSLKPEDTAVYYCAADWVYYRYWPYVGYDYWGQGTQVTVSS | low polyreactivity
